Data taken from PMC3795256.

Target: recombinant human Prx4 (human) (UniProt Q13162)
Assay: SPR; ProteOn XPR36; Ero1α (WT) or Prx4 amine-coupled to a GLC chip, PDI or ERp44 as analyte (0.444–36 μM); 25 °C; 20 mM HEPES-NaOH pH 7.4, 150 mM NaCl, 0.001% Tween, 2 mM EDTA; two-state model

recombinant human PDI, P07237 18-508 (natural protein; other documents disagree on this pair), sequence (P07237 18-508): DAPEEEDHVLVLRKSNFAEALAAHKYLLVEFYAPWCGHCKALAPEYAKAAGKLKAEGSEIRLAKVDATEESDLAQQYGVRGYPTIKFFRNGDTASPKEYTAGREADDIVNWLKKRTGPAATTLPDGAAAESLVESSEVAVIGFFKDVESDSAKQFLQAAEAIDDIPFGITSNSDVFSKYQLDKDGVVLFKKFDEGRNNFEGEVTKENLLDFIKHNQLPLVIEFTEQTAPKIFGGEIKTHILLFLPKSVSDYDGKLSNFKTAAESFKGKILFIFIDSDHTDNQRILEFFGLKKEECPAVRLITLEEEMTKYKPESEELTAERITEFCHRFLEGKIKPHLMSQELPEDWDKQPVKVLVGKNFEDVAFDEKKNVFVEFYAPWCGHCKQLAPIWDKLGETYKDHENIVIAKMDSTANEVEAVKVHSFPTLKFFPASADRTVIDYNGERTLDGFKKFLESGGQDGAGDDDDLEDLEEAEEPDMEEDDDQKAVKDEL
recombinant human Prx4 (human), sequence (Q13162 38-271): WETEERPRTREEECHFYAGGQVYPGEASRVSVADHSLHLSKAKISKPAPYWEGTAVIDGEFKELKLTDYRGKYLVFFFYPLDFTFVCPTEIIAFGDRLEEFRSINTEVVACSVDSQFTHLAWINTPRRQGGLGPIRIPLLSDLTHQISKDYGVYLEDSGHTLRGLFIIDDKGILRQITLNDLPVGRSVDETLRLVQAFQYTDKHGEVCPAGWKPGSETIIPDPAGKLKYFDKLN

Kd: 10.6 µM
Substance: recombinant human PDI, P07237 18-508 (natural protein; other documents disagree on this pair)
